The RNAGym collection of RNA variant scans (doi:10.1073/pnas.2313332121)

B1: TPR t1 (parent)
chain: GACCAAUCUGCCCUCAGAGCUCGAGAACAUCUUCGGAUGCAGAGGAGGCAGGCUUCGGUGGCGCGAUAGCGCCAACGUCCUCAACCUCCAAUGCAUCCCACCACAUGAUGAUGCCUGAAGAGCCUUGGUUUUUUG

Variants of: B1
Experiment: polymerase ribozyme fitness, log enrichment relative to wild type (log ratio); higher = more active; in vitro selection for triplet polymerase activity
Method in brief: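 For each subunit of a heterodimeric triplet polymerase ribozyme, a mutant library was built by PCR and transcribed, then taken through a single in vitro selection round in triplicate. Selection involved annealing to a biotinylated primer, the partner subunit and triplets, incubation frozen at −7 °C, gel excision of extended constructs, capture on streptavidin beads and RT-PCR. Genotypes were retained after Illumina sequencing of inputs and outputs only with ≥10 input reads and ≥1 read in each output. Fitness is defined as the logarithm of a genotype's enrichment relative to wild-type enrichment, using inverse-variance-weighted averages across replicates, with the logarithm taken to base 2.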

First: GACCAAUCUGCCCUUAGAGCUCGAGAACAUCUUCGGAUGCAGAGGAGGCAGGCCUCGGUGGCGCGAUAGCGCUAACGUCCUCAACCUCCAAUGCAUCCCACCACAUGAUGAUACCUGAAGAGCGUUGGUUUUUUG [C15U U54C C73U G113A C124G]
Second: GACCAAUCUGCCCUUAGAGCUCGAGAACAUCUUCGGAUGCAGAGGAGGCAGGCUUCAGUGGCGCGAUAGCGCCAACGUCCUCAACCUCCAAUGCAUCCCACCACAUGAUGAUGCCUUAAGAGCCUUGGUUUUUUG [C15U G57A G117U]
The “polymerase ribozyme fitness (log ratio)” value of the first is higher: -0.579 for the first, -3.3 for the second.

Going from GACCAAUCUGCCCUCCGAGCUCGAGAACAUCUUCGGAUGGAGAGGAGGCAGGCUUAGGUGGCGCGAUAGCGCCAACGUCCUCAACCUCCAAUGCAUCCCACCACAUGAUGAUGCCUGAAGAGCCUUGGUUUUUUG [A16C C40G C56A] to GACCAAUCUGCCCUCCGAGCUCGAGAACAUCUUCGGAUGCAGAGGAUGCAGGCUUCGGUGGCGCGAUAGCGCCAACGUCCUCAACCUCCAAUGCAUCCCACCACAUGAUGAUGCCUGAUGAGCCUUGGUUUUUUG [A16C G47U A119U], the “polymerase ribozyme fitness (log ratio)” value falls from -3.75 to -5.65.

Going from GACCAAUCUGCCCUCCGAGCUCGAGAACAUCUUCGGAUGCAGACGAGGUAGGCUUCGGUGGCGCGAUAGCGCCAACGUCCUCAACCUCCAAUGCAUCCCACCACAUGAUGAUGCCUGAAGAGCCUUGGUUUUUUG [A16C G44C C49U] to GACCAAUCUGCCCUCCGAGCUCGAGAACAUCUUCGGAUGCAGAGGAGGCAGGCUUCGGUGGGGCGAUAGCGCCGACGUCCUCAACCUCCAAUGCAUCCCACCACAUGAUGAUGUCUGAAGAGCCUUGGUUUUUUG [A16C C62G A74G C114U], the “polymerase ribozyme fitness (log ratio)” value falls from -3.94 to -5.78.

First: GACCAAUCUGCCCUUAGAGCUCGAGAACAUCUUCGGAUGCAGAGGAGGCAGGCUUCUGUGGCGCGAUAGCGGCAACGUCCGCAACCUCCAAUGCAUCCCACCACAUGAUGAUGCCUGAAGAGCCUUGGUUUUUUG [C15U G57U C72G U81G]
Second: GACCAAUCUGCCCUCCGAGCUCGAGAACAUCUUCGGAUGCAGAGGAGGCAGGCUUCUGUGGCGCGAUAGCUCCAACGUCCUCAACCACCAAUGCAUCCCACCACAUGAUGAUGCCUGAAGAGCCUUCGUUUUUUG [A16C G57U G71U U87A G127C]
The “polymerase ribozyme fitness (log ratio)” value of the first is higher: -2.79 for the first, -6.26 for the second.

Compared with GACCAAUCUGCCCUCCGAGCUCGAGAACAUCUUCGGAUGCAGAUGAGGCAGGCUUCGGUGGCGCGAUAGCGCCAACGCCCUCAACCUCCAAUGCAUCCCACCACAUGAUGAUGCCUGAAGAGCCUUGGUUUUUUG [A16C G44U U78C], GACCAAUCUGCCCUCCGAGCUCCAGAACAUCUUCGGAUGCAGAGGAGGCAGGCUUCGGUGCCACGAUAGCGCCAACGUCCUCAACCACCAAUGCAUCCCACCACGUGAUCAUGCCUGAAGAGCCUUGGUUUUUUG [A16C G23C G61C G63A U87A A105G G110C] is lower in “polymerase ribozyme fitness (log ratio)” value: -4.35 for the first, -7.62 for the second.

First: GACCAAUCUGCCCUUAGAGCUCGAGAACAUCUUCGGAUGCAGAGGAGGCAGGCUUCGGUGCCGCGAUAGCGCCAACGUCCUCAACCUCCAAUGCAUCCCACCACAUGAUGAUGCCUGAAGAGCCUUGGUUUUUUG [C15U G61C]
Second: GACCAAUCUGCCCUUAGAGCUCGAGAACAUCUUCGGAUGCAGAGGAGGCAGGCUUCGGUGUCGCGAUAGCGCCAACGUCCUCAACCUCCAAUGCAUCCCACCACAUGAUGAUGCCUGAAGAGCCUUGGUUUUUUG [C15U G61U]
The “polymerase ribozyme fitness (log ratio)” value of the first is lower: -2.32 for the first, -0.638 for the second.

First: GACCAAUCUGCCCUUAGAGCUCGAGAACAUCUUCGGAUGCAGAGGAGGCAGACUUCGGUGGCGCGAUAGCGCCAACGUCCUCAACCUCCAGUGCAUCCCACCACAUGAUGAUGCCUGAAGAGCCUUGGUUUUUUG [C15U G52A A91G]
Second: GACCAAUCUGCCCUUAGAGCUCGAGAACAUCUUCGGAUGCAGAGGAGGCAGGCUUCGGUGGCGCGAUAGCACCAACGUCCUCAACCUCCAAUGCAUCCCACAACAUGAUGAUGCCUGAAGAGCCUUGGUUUUUUG [C15U G71A C102A]
The “polymerase ribozyme fitness (log ratio)” value of the first is higher: -2.95 for the first, -5.13 for the second.

Going from GACCAAUCUGCCCUCCGAGCUCGAGAACAUCUUCGGAUGCAGAGGAGGCAGGCUUUGGUGGCGCGAUAGCGCCAACGUCCUCAACCUCCAAUGCAUCCCACCACAUGAUGAUGCCUGAAGAGCCUUGGUUUUUUG [A16C C56U] to GACCAAUCUGCCCUCCGAGCUCGAGAACAUCUUCGGAUGCAGAGGAGGCAGGCUUGGGUGGCGCGAUAGCGCCAACGUCCUCAACCUCCAAUGCAUCCCACCACAUGAUGAUGCCUGAAGAGCCUUGGUUUUUUG [A16C C56G], the “polymerase ribozyme fitness (log ratio)” value falls from -2 to -2.73.

Compared with GACCAAUCUGCCCUCCGAGCUCGAGAACAUCUUCGGAUGCAGAGGAGGCAGGCUUAGGUGGCGCGAUAGCGCCAACGUCCUCAACCUCCAAUGCAUCCCACCACAUGAUGAUGCCUGAAGAGCCUUGGUUUUUUG [A16C C56A], GACCAAUCUGCCCUUAGAGCUCGAGAACAUCUUCGGAUGCAGAGGAGGCAGGCUUCGGUGGCACGAUAGCGCUAACGUCCUCAACCUCCCAUGCAUCCCACCACAUGAUUAUGCCUGAAGAGCCUUGGUUUUUUG [C15U G63A C73U A90C G110U] is lower in “polymerase ribozyme fitness (log ratio)” value: -2.44 for the first, -5.03 for the second.

First: GACCAAUCUGCCCUUAGAGCUCGAGAACAUCUUCGGAUGCAGAGGAGGCAGACUUCGAUGGCGCGAUAGCGCCAACGUCCUCAACCUUCAAUGCAUCCCACCACAUGAUGAUGCUUGAAGAGCCUUGGUUUUUUG [C15U G52A G58A C88U C115U]
Second: GACCAAUCUGCCCUUAGAGCUCGAGAACAUCUUCGGAUGCAGAGGAGGCAGGCUUCGGUGGCGCGAUACCGCGAACGUCCUCAACCUCCAAUGAAUCCCACCACAUGAUGCUGCCUGAAGAGCCUUGGUUUUUUG [C15U G69C C73G C94A A111C]
The “polymerase ribozyme fitness (log ratio)” value of the first is higher: -4.34 for the first, -6.09 for the second.

In the case of GACCAAUCUGCCCUUAGAGCUCGAGAACAUCUUCGGAUGCAGAGGAGGCAGGCUUCGGUGGCGCGAUAGCGCCAACGCCCUCCACCUCCAAUGCAUACCAACACAUGAAGAUGCCUGAAGAGCCUUGGUUUUUUG [C15U U78C A83C C97A C101A U109A], the “polymerase ribozyme fitness (log ratio)” value is reported as -5.99.
